Laboratory results reported in the DeepSol protein solubility set.

Experiment: soluble on expression in E. coli; label from the status in PepcDB or PDB records

Soluble on expression in E. coli, soluble:
MTEEFNESMINDIKEGDKVTGEVQQVEDKQVVVHINGGKFNGIIPISQLSTHHIDSPSEVVKEGDEVEAYVTKVEFDEENETGAYILSRRQLETEKSYSYLQEKLDNNEIIEAKVTEVVKGGLVVDVGQRGFVPASLISTDFIEDFSVFDGQTIRIKVEELDPENNRVILSRKAVEQEENDAKKDQLLQSLNEGDVIHGKVARLTQFGAFIDIGGVDGLVHVSELSHEHVQTPEEVVSIGQDVKVKIKSIDRDTERISLSIKDTLPTPFENIKGQFHENDVIEGVVVRLANFGAFVEIAPGVQGLVHISEIAHKHIGTPGEVLEPGQQVNVKILGIDEENERVSLSIKATLPNEDVVESDPSTTKAYLENEEEDNPTIGDMIGDKLKNLKLLEHHHHHH
MSKPFKLNSAFKPSGDQPEAIRRLEEGLEDGLAHQTLLGVTGSGKTFTIANVIADLQRPTMVLAPNKTLAAQLYGEMKEFFPENAVEYFVSYYDYYQPEAYVPSSDTFIEKDASVNEHIEQMRLSATKAMLERRDVVVVASVSAIYGLGDPDLYLKMMLHLTVGMIIDQRAILRRLAELQYARNDQAFQRGTFRVRGEVIDIFPAESDDIALRVELFDEEVERLSLFDPLTGQIVSTIPRFTIYPKTHYVTPRERIVQAMEEIKEELAARRKVLLENNKLLEEQRLTQRTQFDLEMMNELGYCSGIENYSRFLSGRGPGEPPPTLFDYLPADGLLVVDESHVTIPQIGGMYRGDRARKETLVEYGFRLPSALDNRPLKFEEFEALAPQTIYVSATPGNYELEKSGGDVVDQVVRPTGLLDPIIEVRPVATQVDDLLSEIRQRAAINERVLVTTLTKRMAEDLTEYLEEHGERVRYLHSDIDTVERMEIIRDLRLGEFDVLVGINLLREGLDMPEVSLVAILDADKEGFLRSERSLIQTIGRAARNVNGKAILYGDKITPSMAKAIGETERRREKQQKYNEEHGITPQGLNKKVVDILALGQNIAKTKAKGRGKSRPIVEPDNVPMDMSPKALQQKIHELEGLMMQHAQNLEFEEAAQIRDQLHQLRELFIAAS
SLLSETSTALGLQELSNITMPVIFNEPLSFLQRLTEYMEHTYLIHKASSLSDPVERMQCVAAFAVSAVASQWERTGKPFNPLLGETYELVRDDLGFRLISEQVSHHPPISAFHAEGLNNDFIFHGSIYPKLKFWGKSVEAEPKGTITLELLDHNEAYTWTNPTCCVHNIIVGKLWIEQYGNVEIINHKTGDKCVLNFKPCGLFGKELHKVEGYIQDKSKKKLCALYGKWTECLYSVDPATFDAYKKNDKKNTEEKKNSKQTSSSEESDEMPVPDSESVFIIPGSVLLWRIAPRPPNSAQMYNFTSFAMVLNEVDKEMESVIPKTDCRLRPDIRAMENGEIDLASEEKKRLEEKQRAARKNRSKSEEDWKTRWFHQGPNPYSGAQDWIYSGSYWDRNYFNLPDIY
SQPKVPEWVNTPSTCCLKYYEKVLPRRLVVGYRKALNCHLPAIIFVTKRNREVCTNPNDDWVQEYIKDPNLPLLPTRNLSTVKIITAKNGQPQLLNSQ
MSLKIMIVEDDRIQATSLKLKLRQLGLDDVILAENGFAALELCNKVGIDLMFCDIRMPQMDGISLLSQLSLQAPKLGVVILSAVEDTILELTHNMCSLAGFAYVDRLPKPYEVEDLQRVVEGFQKQTEPETSHKPAITLTCDEIEQAFLHDHIFNYYQPQFDFRSGAMVGVEALVRYEHPTHGMLSPAVFLPLIEQCGLHEKLFLTVLEKSVSALASIGADLQLSVNISQRNLQHSICDPILAICERYGFPASKLTLEMTEHEVYNGTPTSLANLARLRMYGVGLSIDDFGTGYASLGQLAQLPFTELKIDRSFVHDLATNYKHQQLTNMCLLLAQSLGLHCVVEGVENEETWQYLRQLGVDTCQGYYAAKPMPIAQLSELYTKNRRQCLGEGHHHHHH
MVRVGILGASGYGGAELLRLLKAHPEVELVGFSSRKYEGRPLEAAWPQLWDGRLFAAQEEVLERAEVVFLALPNGLSMEIAPEALKAGKRVVDLSGDFRLPPEVYEAWYRIPHKSPDLYREAVYGLPELHREELKGARLVANPGCYVTAATLALAPLAAEGVLKGAFVVGLSGVSGAGREAEGTAFAEVNENLKPYKAGGTHRHIPEMERNLGRILAQGRRVRTHGEARAVRLSFTPHLVPMTRGILVTAEAEVEGAWSQESLEALYRDFYAGEPFVRVLKGLPETKATLGSNRVDVRPLYEERTGRVLVFAALDNLVKGMAGQAVQNLNLMLGLPEETALPKEGLWP

Soluble on expression in E. coli, not soluble:
MGSDKIHHHHHHMATPPFHYQHMFPLGPDKTEYYLLTKDYVSVSEFEGKPILKIEKEGLTAMANAAFRDVSFLLRRSHNEQVAKILSDPEASDNDKYVALTFLRNAEVSAKGKLPLCQDTGTAIIHGEKGQQVWTGYCDEEALSLGVYKTYTEENLRYSQNAPLTMYDEVNTKCNLPAQIDLEATEGMEYKFLCVTKGGGSANKTYLYQETKAVLNPATLVPFLVEKMKTLGTAACPPYHIAFVIGGTSAEKNLLTVKLASTHYYDELPTTGNEYGRAFRDVELEKQVLEEAYKIGLGAQFGGKYMAHDVRIIRLPRHGASCPIGLGVSCSADRNIKCKINKDGIWIEKMDDKPGELIPAELREAGEGDVVKIDLNQPMADILKELTKYPVATRLSLNGTIIVGRDIAHAKLKERLDRGEDLPQYIKDHPIYYAGPAKTPEGMACGSMGPTTAGRMDPYVDLFQSHGGSMIMLAKGNRSQQVTDACKKYGGFYLGSIGGPAAILAQNNIKSIECVEYPELGMEAIWKIEVEDFPAFILVDDKGNDFFKQLKPRCLGNCK
MKAKPSHQATSMSSSLRVSPSIHGYHFDTAARKKAVGNIFENIDQESLQRLFRNSGDKKAEERAKIIFAIDQDLEEKTRALMALKKRTKDKLLQFLKLRKYSIKVH
MQGLTATLLPFGATLAKLTFPDKNGKNQDLVLGFDTIDEFEKDAASIGKTVGRVANRIKNSTLHFDGKQYTMTPNNGPHYLHGGPNGLGYRKWEVVRHAPESVSFSVRANEQDDGLPGDAKIDVTYTVNDRNQLIIEHHATCDTPGLLALTNHAYWNLDGSDTVAEHFLEMEADEFVEVDDTFCPTGAIRSVTDTGFDFRSGKQLKESGKDAEELLDLDNDLVITKKTP
MGHHHHHHSHMLDVYACHCTLCQKWSGGIAMYLEACGQPQLAPLSPEPPYFSSSSRGERYFCSGCGCPLWFRLTDTDRYFIPWTLLELNEVDRRRLILAAEIYTETQPAFWRLTGQYARLSGKEVEEMDSPCQLAH
MGSDKIHHHHHHMKRAVVVFSGGQDSTTCLIQALQDYDDVHCITFDYGQRHRAEIEVAQELSQKLGAAAHKVLDVGLLNELATSSLTRDSIPVPDYDANAQGIPNTFVPGRNILFLTLASIYAYQVGAEAVITGVCETDFSGYPDCRDEFVKALNQAIVLGIARDIRFETPLMWLNKAETWALADYYQQLDTVRYHTLTCYNGIKGDGCGQCAACHLRANGLAQYQKDAATVMASLKQKVGLR
MIILMSKPLSEKKTSNNISDLIYGLLKEDIFNFVLKPGQRFTETDLSERYEASRTPIRQALYRLEQEGFVHVHFRSGWEIRPLEFKYYQELFDLRMILEKEAVKRLCELEHPEQLPALIELKKMWLIAPVDYLTDTKTLVLQSEDFHCALVRAAGNQQIAKIHQEASEKIRIVLSLGAMKEFDIAHAYQDHGAILQCILNKDAEQAIHLAEHHVLESIHEVKNITLQMISAIH
MGSDKIHHHHHHMTVQRREKGSSITRVLEIIEAISRAERPMSPAELAFLLDIPKPSIHRLLQQLEADNYVQINMRGLLVPGDRMHSIALGVLHSSRFKALRQAILKKLAETIGETCGIAIPDGIEMIYYDRVQTNWPLRVNLPVGSHTPVACTASGKLYLSSLPKERRHRIIGKLSLEKLARNTLIESESLEKELINIQANELGTDNEEFIDGMVACSVPIKDQDGKLFACLFTHAPVIRKSLDELLAFEPALRHAAIELGDLLKEQ
